Seven substances from patent US20260078171A1 can be followed below.

Assay [1] has as its target SARS-CoV-2 Omicron BA.4.1 spike protein (authentic virus) (SARS-CoV-2). In words: cell-based or functional assay.
The target in assay [2] is SARS-CoV-2 Omicron BA.2 spike protein (authentic virus / MLV pseudovirus) (SARS-CoV-2). In words: cell-based or functional assay.
Assay [3] has as its target SARS-CoV-2 Omicron BA.1 spike protein (authentic virus / MLV pseudovirus) (SARS-CoV-2). In words: cell-based or functional assay.
Assay [4] deals with SARS-CoV-2 Delta spike protein (authentic virus / MLV pseudovirus) (SARS-CoV-2). In words: cell-based or functional assay.
Assay [5] has as its target SARS-CoV-2 Omicron BA.5 spike glycoprotein (lentivirus-based pseudovirus) (SARS-CoV-2). In words: cell-based or functional assay.
The target in assay [6] is SARS-CoV-2 B.1.617.2 (Delta) spike protein, Monogram pseudovirus (SARS-CoV-2) (UniProt P0DTC2). In words: cell-based or functional assay.
Assay [7] addresses SARS-CoV-2 Beta spike protein (MLV pseudovirus) (SARS-CoV-2). In words: cell-based or functional assay.
Assay [8] has as its target SARS-CoV-2 Omicron XBB.1 spike protein, Monogram pseudovirus (SARS-CoV-2) (UniProt P0DTC2). In words: cell-based or functional assay.
In assay [9] the target is SARS-CoV-2 Omicron BA.2.75 spike glycoprotein (lentivirus-based pseudovirus) (SARS-CoV-2). In words: cell-based or functional assay.
In assay [10] the target is SARS-CoV-2 Omicron BA.2.75 spike protein, Monogram pseudovirus (SARS-CoV-2) (UniProt P0DTC2). In words: cell-based or functional assay.
Assay [11] concerns the target SARS-CoV-2 Omicron BN.1 spike protein, Monogram pseudovirus (SARS-CoV-2) (UniProt P0DTC2). In words: cell-based or functional assay.
Assay [12] deals with SARS-CoV-2 Omicron XBB spike protein, Monogram pseudovirus (SARS-CoV-2) (UniProt P0DTC2). In words: cell-based or functional assay.
Assay [13] concerns the target SARS-CoV-2 Omicron XBB.1.5 spike protein, Monogram pseudovirus (SARS-CoV-2) (UniProt P0DTC2). In words: cell-based or functional assay.
In assay [14] the target is SARS-CoV-2 Beta RBD (SARS-CoV-2). In words: bio-layer interferometry (BLI, Octet), monovalent Fab affinity.

By Kd is commonly meant the equilibrium constant for the complex coming apart.

VYD223 (antibody), sequence (VH): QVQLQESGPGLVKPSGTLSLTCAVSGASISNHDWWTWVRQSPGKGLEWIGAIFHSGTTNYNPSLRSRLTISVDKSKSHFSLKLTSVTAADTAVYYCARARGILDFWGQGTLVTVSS
VYD223 (antibody), sequence (VL): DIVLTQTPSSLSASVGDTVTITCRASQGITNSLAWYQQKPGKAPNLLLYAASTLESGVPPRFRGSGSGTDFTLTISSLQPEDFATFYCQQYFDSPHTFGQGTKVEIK
ADI-58125 (antibody), sequence (VH): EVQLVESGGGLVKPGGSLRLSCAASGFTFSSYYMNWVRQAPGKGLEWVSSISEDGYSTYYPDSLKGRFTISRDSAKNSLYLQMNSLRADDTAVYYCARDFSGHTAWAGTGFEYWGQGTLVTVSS
ADI-58125 (antibody), sequence (VL): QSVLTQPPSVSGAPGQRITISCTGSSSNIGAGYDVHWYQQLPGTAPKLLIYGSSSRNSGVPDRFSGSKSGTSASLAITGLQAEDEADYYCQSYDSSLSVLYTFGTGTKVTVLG
VYD222 (antibody), sequence (VH): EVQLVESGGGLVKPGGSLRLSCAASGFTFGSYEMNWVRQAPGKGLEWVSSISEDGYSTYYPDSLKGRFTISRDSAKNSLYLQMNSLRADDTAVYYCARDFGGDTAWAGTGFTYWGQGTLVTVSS
VYD222 (antibody), sequence (VL): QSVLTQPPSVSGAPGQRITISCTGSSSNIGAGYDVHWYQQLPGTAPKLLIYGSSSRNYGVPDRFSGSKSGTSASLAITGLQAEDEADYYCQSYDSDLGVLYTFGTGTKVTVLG
VYD224 (antibody), sequence (VH): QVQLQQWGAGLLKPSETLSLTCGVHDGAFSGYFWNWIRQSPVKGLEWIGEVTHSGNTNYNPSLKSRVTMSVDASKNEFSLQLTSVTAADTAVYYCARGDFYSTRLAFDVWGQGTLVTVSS
VYD224 (antibody), sequence (VL): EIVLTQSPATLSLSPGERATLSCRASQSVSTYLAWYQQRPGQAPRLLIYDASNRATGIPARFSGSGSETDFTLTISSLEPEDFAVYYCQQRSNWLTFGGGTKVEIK

With LY-CoV1404 (antibody), the IC50, authentic virus neutralization in assay [1] was found to be 0.026 µg/mL; in [2], 0.01 µg/mL; in assay [3] it was 0.004 µg/mL; in assay [4], 0.027 µg/mL. In addition, the IC90, authentic virus neutralization came out at 0.1 µg/mL in [1], 0.069 µg/mL in assay [2], 0.152 µg/mL in assay [3] and 0.096 µg/mL in [4].

For ADI-58125 (antibody), the IC50, authentic virus neutralization in [1] was above 5 µg/mL; in assay [2], above 5 µg/mL; in assay [3] it was above 5 µg/mL; in assay [4], 0.049 µg/mL. For the same substance, the IC90, authentic virus neutralization in [1] was above 5 µg/mL; in assay [2] it was above 5 µg/mL; in [3], above 5 µg/mL; in assay [4], 0.156 µg/mL.

Take VYD222 (antibody): the figures for the IC50, lentivirus-based pseudovirus neutralization in assay [5] and in [9] were 0.03 µg/mL and 0.1 µg/mL, respectively. In addition, the IC50, authentic virus neutralization was 0.041 µg/mL in assay [1], 0.008 µg/mL in [2], 0.026 µg/mL in [3] and 0.016 µg/mL in [4]. Further, the IC90, authentic virus neutralization in assay [1] was 0.524 µg/mL; in assay [2] it was 0.231 µg/mL; in [3], 0.143 µg/mL; in assay [4] it was 0.103 µg/mL. Also, the IC50, PhenoSense pseudovirus neutralization turned out to be 4.2 ng/mL in [6]; 0.121 µg/mL in assay [8]; 1.36 µg/mL in assay [10]; 2.11 µg/mL in assay [11]; 0.152 µg/mL in assay [12]; 0.081 µg/mL in assay [13]. For the same substance, the IC50, MLV-based pseudovirus neutralization in assay [2], in [7], in assay [3] and in [4] was below 0.1 pg/mL each time.

Take VYD223 (antibody): the IC50, authentic virus neutralization in assay [1] turned out to be 0.063 µg/mL; in assay [2] it was 0.016 µg/mL; in assay [3], 0.015 µg/mL; in assay [4] it was 0.013 µg/mL. The IC90, authentic virus neutralization was 0.437 µg/mL in assay [1], 0.084 µg/mL in [2], 0.068 µg/mL in assay [3] and 0.06 µg/mL in [4].

For ADI-58125 (Fab), the Kd in assay [14] stood at 6.4 nM.

In the case of CoV2-2130 (antibody), the IC50, authentic virus neutralization was 0.088 µg/mL in assay [1], 0.011 µg/mL in assay [2], above 5 µg/mL in assay [3] and 0.061 µg/mL in assay [4]. The IC90, authentic virus neutralization in assay [1] is 0.587 µg/mL; in assay [2] it was 0.037 µg/mL; in assay [3], above 5 µg/mL; in [4], 0.136 µg/mL.

As for VYD224 (antibody), the IC50, lentivirus-based pseudovirus neutralization is 0.08 µg/mL in assay [5] and 0.01 µg/mL in assay [9]. Also, the IC50, authentic virus neutralization in [1] amounted to 0.126 µg/mL; in assay [2] it was 0.016 µg/mL; in assay [3], 0.01 µg/mL; in assay [4] it was 0.006 µg/mL. The IC90, authentic virus neutralization in assay [1] came to 0.359 µg/mL; in [2], 0.054 µg/mL; in assay [3] it was 0.023 µg/mL; in assay [4], 0.014 µg/mL. Moreover, the IC50, PhenoSense pseudovirus neutralization in [6] is 1 ng/mL; in assay [8], above 5 µg/mL; in [10] it was 0.004 µg/mL; in assay [11], 0.0015 µg/mL; in assay [12], above 5 µg/mL; in [13], above 5 µg/mL.
